Experimental data taken from patent US20030166537A1, “Use of GDNF for treating corneal defects” (Biopharm Gesellschaft Zur Biotechnologischen Entwicklung …, priority 1999, published 2003).

Tested on: FAK, Pyk2, cRaf, MEK1, Erk 1 and 2, Elk, RSK
Assay: western blot of phosphorylated intracellular signaling proteins in corneal epithelial cells
Type: cell-based, human
Method: In order to investigate which protein kinase cascades are activated by GDNF and artemin, corneal epithelial cells from the cell line were seeded at a density of 5×10^5 cells/75 cm^2 and cultured in SHEM with 10% FBS for one day. Cultures were then washed with PBS and incubated in serum-free SHEM without additives or with GDNF (200 ng/ml) or with artemin (250 ng) for 10 to 40 minutes. After washing with PBS, cultured cells were solubilized in lysis buffer containing 50 mM Tris2Cl (pH8.0), 150 mM NaCl, 0.02% sodium azide, 100 μg/ml phenylmethylsulfonyl fluoride, 1 mM Na3VO4, 1% Triton X-100 and a mixture of several protease inhibitors [complete™, Boehringer Mannheim (1 tablet/30 ml buffer)]. 80 μg total protein per lane was fractionated by NuPAGE 10% SDS-MOPS-Bis-Tris gel or NuPAGE 3-8% Tris-acetate gel (all from NOVEX, San Diego, Calif.) and blotted onto a nitrocellulose membrane. Phosphorylated proteins were detected with phospho-specific antibodies and visualized with the ECL western blot analysis system (Amersham). Antibodies against phospho-Raf(ser259), phospho-MEK1/2(ser217/221), phospho-MAPK (Erk1/2) (thr202/tyr204), phospho-p90 ribosomal S6 kinase (RSK) (ser381) and phospho-Elk-1(ser383) were obtained from New England Biolabs (Beverly, Mass.). Antibody against phospho-FAK (tyr397/tyr407/tyr576/tyr577/tyr861/tyr925) and phospho-Pyk2 (tyr402/tyr579/tyr/580/tyr881) were purchased from Biosource (Camarillo, Calif., USA). A monoclonal antibody against phospho-tyrosine came from Sigma (Deisenhofen, Germany).

[1] = GDNF 200 ng/ml, within 10 minutes
[2] = GDNF 200 ng/ml, within 40 minutes

B1: GDNF: recombinant human GDNF having the amino acid sequence of human wild-type GDNF (GenBank L19063, L15306) (protein)
chain: SPDKQMAVLPRRERNRQAAAANPENSRGKGRRGQRGKNRGCVLTAIHLNVTDLGLGYETKEELIFRYCSGSCDAAETTYDKILKNLSRNRRLVSDKVGQACCRPIAFDDDLSFLDDNLVYHILRKHSAKRCGCI
[1]
  serine phosphorylation of Elk: significantly induced
  serine phosphorylation of MEK1: significantly induced
  serine phosphorylation of cRaf: significantly induced
  tyrosine/threonine phosphorylation of Erk 1 and 2: significantly induced
[2]
  phosphorylation of Pyk2: phosphorylated
  tyrosine phosphorylation of FAK: gradually increased
In response to GDNF
  phosphorylation of RSK: not detectable
